Assay results reported in patent publication US7432419B2 (priority 2004, dated 2008).

B1: Elastase: Human Neutrophil Elastase (Sigma), used as surface recognition domain component (protein, listed as Homo sapiens)
chain: EIVGGRRARPHAWPFMVSLQLRGGHFCGATLIAPNFVMSAAHCVANVNVRAVRVVLGAHNLSRREPTRQVFAVQRIFENGYDPVNLLNDIVILQLNGSATINANVQVAQLPAQGRRLGNGVQCLAMGWGLLGRNRGIASVLQELNVTVVTSLCRRSNVCTLVRGRQAGVCFGDSGSPLVCNGLIHGIASFVRGGCASGLYPDAFAPVAQFVNWIDSIIQ
modifications: truncated neutrophil elastase protein
notes: Human Neutrophil Elastase (Sigma), used as surface recognition domain component

What was measured:
[1] = test system: Xylella fastidiosa (Xf strain "Stags Leap"); type: cell-based
[2] = test system: E. coli strain HB 101; type: cell-based
[3] = test system: Xf outer-membrane protein mopB; type: biochemical, Xylella fastidiosa

Molecule	bacterial growth inhibition (killing) of Xf [1]	bacterial growth inhibition (killing) of E. coli [2]	digestion of purified mopB [3]	effect of elastase on Cecropin B-stimulated lysis of Xf cells [1]
Cecropin B [reference compound]	some growth inhibition	complete growth inhibition	–	–
B1	insufficient to inhibit bacterial growth	insufficient to inhibit bacterial growth	at least partially digested	greatly enhances
